Values of other authors in patent publication US20250332099A1, “PROCESS FOR FORMULATING COMPOSITIONS COMPRISING GLUCAGON-LIKE-PEPTIDE-2 (GLP-2) ANALOGUES” (ZEALAND PHARMA A/S, priority 2021, published 2025).

| half-life (compared with seven minutes for native GLP-2) | Compound | half-life in humans |
| --- | --- | --- |
|  | Hy-His-Ala-Asp-Gly-Ser-Phe-Ser-Asp-Glu-Met-Asn-Thr-Ile-Leu-Asp-Asn-Leu-Ala-Ala-Arg-Asp-Phe-Ile-Asn-Trp-Leu-Ile-Gln-Thr-Lys-Ile-Thr-Asp-OH [GLP-2 [1-33]] | around 7 minutes |
|  | GLP-2 [3-33]: truncated GLP-2 [3-33] (DGSFSDEMNTILDNLAARDFINWLIQTKITD; Glucagon-like peptide 2; UniProt P01275 148-178, looked up, fragment) | 27 min |
| about two | CC[C@H](C)[C@H](NC(=O)[C@H](Cc1ccccc1)NC(=O)[C@H](CC(=O)O)NC(=O)[C@H](CCCNC(=N)N)NC(=O)[C@H](C)NC(=O)[C@H](C)NC(=O)[C@H](CC(C)C)NC(=O)[C@H](CC(N)=O)NC(=O)[C@H](CC(=O)O)NC(=O)[C@H](CC(C)C)NC(=O)[C@@H](NC(=O)[C@@H](NC(=O)[C@H](CC(N)=O)NC(=O)[C@H](CCSC)NC(=O)[C@H](CCC(=O)O)NC(=O)[C@H](CC(=O)O)NC(=O)[C@H](CO)NC(=O)[C@H](Cc1ccccc1)NC(=O)[C@H](CO)NC(=O)CNC(=O)[C@H](CC(=O)O)NC(=O)CNC(=O)[C@@H](N)Cc1c[nH]cn1)[C@@H](C)O)[C@@H](C)CC)C(=O)N[C@@H](CC(N)=O)C(=O)N[C@@H](Cc1c[nH]c2ccccc12)C(=O)N[C@@H](CC(C)C)C(=O)N[C@H](C(=O)N[C@@H](CCC(N)=O)C(=O)N[C@H](C(=O)N[C@@H](CCCCN)C(=O)N[C@H](C(=O)N[C@H](C(=O)N[C@@H](CC(=O)O)C(=O)O)[C@@H](C)O)[C@@H](C)CC)[C@@H](C)O)[C@@H](C)CC [teduglutide] |  |
